Biological target: NADH-dependent [FeFe]-hydrogenase Hyd1ABC (purified recombinant heterotrimer) (Syntrophomonas wolfei)

B1: Clostridial ferredoxin (Clostridium pasteurianum) (natural protein)
chain: MAYKIADSCVSCGACASECPVNAISQGDSIFVIDADTCIDCGNCANVCPVGAPVQE
  hydrogenase activity, Fdred → H2 (hydrogen production from reduced ferredoxin without NADH), 37°C, pH 7.5: < 0.01 U · mg^−1
  hydrogenase activity, H2 → Fdox (reduction of oxidized ferredoxin with hydrogen as the electron donor), 37°C, pH 7.5: < 0.01 U · mg^−1

— PMC5626996
